# Results as given in patent US20130315910A1 (Xencor, published 2013).
# T1: human FcγRIIb receptor protein (R&D Systems) (human, UniProt P31994 46-217)
# T1 construct: Bought protein injected over captured antibody in Biacore; also called CD32b
# T1 sequence (looked up): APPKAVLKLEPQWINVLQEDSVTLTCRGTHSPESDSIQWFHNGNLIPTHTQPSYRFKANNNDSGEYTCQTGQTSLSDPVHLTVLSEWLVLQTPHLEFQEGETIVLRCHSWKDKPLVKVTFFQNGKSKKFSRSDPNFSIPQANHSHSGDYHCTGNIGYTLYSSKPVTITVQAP
# T2: human FcγRIIa (131R), His- and GST-tagged (human, UniProt P12318 34-217)
# T2 construct: Expressed in HEK293T cells, purified by nickel chromatography; also called R131 FcγRIIa; not shown: 6xHis and GST tags of the pTT5 vector
# T2 sequence (looked up): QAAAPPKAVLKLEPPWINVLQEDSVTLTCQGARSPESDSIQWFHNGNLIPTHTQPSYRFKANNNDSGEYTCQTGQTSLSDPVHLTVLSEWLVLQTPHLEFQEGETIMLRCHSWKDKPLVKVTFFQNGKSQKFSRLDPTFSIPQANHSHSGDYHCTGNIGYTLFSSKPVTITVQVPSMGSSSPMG
# B1: G236D/H268D (antibody, human IgG1, kappa)
# heavy: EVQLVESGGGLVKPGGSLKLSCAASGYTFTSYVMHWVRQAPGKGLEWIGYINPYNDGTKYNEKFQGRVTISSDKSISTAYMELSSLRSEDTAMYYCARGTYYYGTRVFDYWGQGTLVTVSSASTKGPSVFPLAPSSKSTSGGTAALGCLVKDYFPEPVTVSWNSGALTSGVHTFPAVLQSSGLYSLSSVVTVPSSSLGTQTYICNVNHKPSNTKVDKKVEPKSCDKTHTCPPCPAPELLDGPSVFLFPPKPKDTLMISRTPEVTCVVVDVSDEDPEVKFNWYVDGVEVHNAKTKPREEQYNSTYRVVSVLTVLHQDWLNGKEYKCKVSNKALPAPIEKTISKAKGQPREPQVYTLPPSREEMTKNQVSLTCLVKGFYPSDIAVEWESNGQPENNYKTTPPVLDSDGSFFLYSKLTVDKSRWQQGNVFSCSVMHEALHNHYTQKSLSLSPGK
# light: DIVMTQSPATLSLSPGERATLSCRSSKSLQNVNGNTYLYWFQQKPGQSPQLLIYRMSNLNSGVPDRFSGSGSGTEFTLTISSLEPEDFAVYYCMQHLEYPITFGAGTKLEIKRTVAAPSVFIFPPSDEQLKSGTASVVCLLNNFYPREAKVQWKVDNALQSGNSQESVTEQDSKDSTYSLSSTLTLSKADYEKHKVYACEVTHQGLSSPVTKSFNRGEC
# notes: HuAM4G7 anti-CD19 IgG1 (m1) with these Fc substitutions, EU index; copies: 2 + 2
# B2: G236L (antibody, human IgG1, kappa)
# heavy: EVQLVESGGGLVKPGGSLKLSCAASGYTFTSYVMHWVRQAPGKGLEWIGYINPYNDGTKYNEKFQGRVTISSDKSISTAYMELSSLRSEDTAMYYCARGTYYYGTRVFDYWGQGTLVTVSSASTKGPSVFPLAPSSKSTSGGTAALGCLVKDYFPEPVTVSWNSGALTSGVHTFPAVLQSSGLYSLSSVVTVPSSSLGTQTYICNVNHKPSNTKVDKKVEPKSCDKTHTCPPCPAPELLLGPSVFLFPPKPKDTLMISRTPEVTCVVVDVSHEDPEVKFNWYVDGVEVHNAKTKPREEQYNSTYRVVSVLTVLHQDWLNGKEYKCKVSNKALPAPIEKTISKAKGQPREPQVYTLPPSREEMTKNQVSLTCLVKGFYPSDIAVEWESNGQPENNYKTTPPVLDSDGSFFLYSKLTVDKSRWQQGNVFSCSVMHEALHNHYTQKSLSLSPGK
# light: DIVMTQSPATLSLSPGERATLSCRSSKSLQNVNGNTYLYWFQQKPGQSPQLLIYRMSNLNSGVPDRFSGSGSGTEFTLTISSLEPEDFAVYYCMQHLEYPITFGAGTKLEIKRTVAAPSVFIFPPSDEQLKSGTASVVCLLNNFYPREAKVQWKVDNALQSGNSQESVTEQDSKDSTYSLSSTLTLSKADYEKHKVYACEVTHQGLSSPVTKSFNRGEC
# notes: HuAM4G7 anti-CD19 IgG1 (m1) with this Fc substitution, EU index; copies: 2 + 2
# B3: G237L (antibody, human IgG1, kappa)
# heavy: not shown
# light: DIVMTQSPATLSLSPGERATLSCRSSKSLQNVNGNTYLYWFQQKPGQSPQLLIYRMSNLNSGVPDRFSGSGSGTEFTLTISSLEPEDFAVYYCMQHLEYPITFGAGTKLEIKRTVAAPSVFIFPPSDEQLKSGTASVVCLLNNFYPREAKVQWKVDNALQSGNSQESVTEQDSKDSTYSLSSTLTLSKADYEKHKVYACEVTHQGLSSPVTKSFNRGEC
# notes: as for B2
# B4: S267D/A327E (antibody, human IgG1, kappa)
# heavy: not shown
# light: DIVMTQSPATLSLSPGERATLSCRSSKSLQNVNGNTYLYWFQQKPGQSPQLLIYRMSNLNSGVPDRFSGSGSGTEFTLTISSLEPEDFAVYYCMQHLEYPITFGAGTKLEIKRTVAAPSVFIFPPSDEQLKSGTASVVCLLNNFYPREAKVQWKVDNALQSGNSQESVTEQDSKDSTYSLSSTLTLSKADYEKHKVYACEVTHQGLSSPVTKSFNRGEC
# notes: as for B1
# B5: S267D/H268E (antibody, human IgG1, kappa)
# heavy: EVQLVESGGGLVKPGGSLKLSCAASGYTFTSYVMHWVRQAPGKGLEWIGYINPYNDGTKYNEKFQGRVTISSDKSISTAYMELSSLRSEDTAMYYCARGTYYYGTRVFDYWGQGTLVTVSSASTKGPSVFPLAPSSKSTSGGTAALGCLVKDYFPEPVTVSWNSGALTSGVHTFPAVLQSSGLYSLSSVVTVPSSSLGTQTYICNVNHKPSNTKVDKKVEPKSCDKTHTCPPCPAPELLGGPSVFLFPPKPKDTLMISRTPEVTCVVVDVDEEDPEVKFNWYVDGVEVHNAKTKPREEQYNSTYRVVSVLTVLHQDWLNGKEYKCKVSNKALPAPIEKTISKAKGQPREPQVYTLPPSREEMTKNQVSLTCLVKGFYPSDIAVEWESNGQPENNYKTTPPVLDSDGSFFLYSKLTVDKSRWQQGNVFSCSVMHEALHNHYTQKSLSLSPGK
# light: DIVMTQSPATLSLSPGERATLSCRSSKSLQNVNGNTYLYWFQQKPGQSPQLLIYRMSNLNSGVPDRFSGSGSGTEFTLTISSLEPEDFAVYYCMQHLEYPITFGAGTKLEIKRTVAAPSVFIFPPSDEQLKSGTASVVCLLNNFYPREAKVQWKVDNALQSGNSQESVTEQDSKDSTYSLSSTLTLSKADYEKHKVYACEVTHQGLSSPVTKSFNRGEC
# notes: as for B1
# B6: G236I (antibody, human IgG1, kappa)
# heavy: not shown
# light: DIVMTQSPATLSLSPGERATLSCRSSKSLQNVNGNTYLYWFQQKPGQSPQLLIYRMSNLNSGVPDRFSGSGSGTEFTLTISSLEPEDFAVYYCMQHLEYPITFGAGTKLEIKRTVAAPSVFIFPPSDEQLKSGTASVVCLLNNFYPREAKVQWKVDNALQSGNSQESVTEQDSKDSTYSLSSTLTLSKADYEKHKVYACEVTHQGLSSPVTKSFNRGEC
# notes: as for B2
# B7: L235Y/S267D (antibody, human IgG1, kappa)
# heavy: not shown
# light: DIVMTQSPATLSLSPGERATLSCRSSKSLQNVNGNTYLYWFQQKPGQSPQLLIYRMSNLNSGVPDRFSGSGSGTEFTLTISSLEPEDFAVYYCMQHLEYPITFGAGTKLEIKRTVAAPSVFIFPPSDEQLKSGTASVVCLLNNFYPREAKVQWKVDNALQSGNSQESVTEQDSKDSTYSLSSTLTLSKADYEKHKVYACEVTHQGLSSPVTKSFNRGEC
# notes: as for B1
# B8: G236W (antibody, human IgG1, kappa)
# heavy: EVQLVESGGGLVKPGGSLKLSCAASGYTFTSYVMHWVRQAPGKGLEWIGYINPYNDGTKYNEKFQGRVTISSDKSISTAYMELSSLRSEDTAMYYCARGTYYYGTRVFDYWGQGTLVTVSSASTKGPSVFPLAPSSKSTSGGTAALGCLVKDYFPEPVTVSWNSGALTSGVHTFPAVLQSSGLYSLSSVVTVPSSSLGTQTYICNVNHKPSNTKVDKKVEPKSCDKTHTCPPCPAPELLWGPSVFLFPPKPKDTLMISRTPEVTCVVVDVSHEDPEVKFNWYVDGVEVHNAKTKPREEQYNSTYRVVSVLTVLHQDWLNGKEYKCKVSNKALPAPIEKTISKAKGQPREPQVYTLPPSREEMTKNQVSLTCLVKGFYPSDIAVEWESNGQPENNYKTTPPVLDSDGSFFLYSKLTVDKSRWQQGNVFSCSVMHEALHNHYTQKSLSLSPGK
# light: DIVMTQSPATLSLSPGERATLSCRSSKSLQNVNGNTYLYWFQQKPGQSPQLLIYRMSNLNSGVPDRFSGSGSGTEFTLTISSLEPEDFAVYYCMQHLEYPITFGAGTKLEIKRTVAAPSVFIFPPSDEQLKSGTASVVCLLNNFYPREAKVQWKVDNALQSGNSQESVTEQDSKDSTYSLSSTLTLSKADYEKHKVYACEVTHQGLSSPVTKSFNRGEC
# notes: as for B2
# B9: G236K (antibody, human IgG1, kappa)
# heavy: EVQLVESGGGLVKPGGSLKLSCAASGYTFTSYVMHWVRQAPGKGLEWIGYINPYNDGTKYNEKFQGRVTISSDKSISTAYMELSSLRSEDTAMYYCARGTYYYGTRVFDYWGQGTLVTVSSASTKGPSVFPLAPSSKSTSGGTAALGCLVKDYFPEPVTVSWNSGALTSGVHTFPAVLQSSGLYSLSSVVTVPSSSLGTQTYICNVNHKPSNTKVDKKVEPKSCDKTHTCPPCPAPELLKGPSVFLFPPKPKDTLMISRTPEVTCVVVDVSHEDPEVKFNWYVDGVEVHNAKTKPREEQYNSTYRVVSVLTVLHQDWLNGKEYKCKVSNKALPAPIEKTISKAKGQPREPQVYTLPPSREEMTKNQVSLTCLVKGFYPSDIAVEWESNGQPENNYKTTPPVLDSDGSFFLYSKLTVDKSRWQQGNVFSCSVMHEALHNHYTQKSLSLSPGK
# light: DIVMTQSPATLSLSPGERATLSCRSSKSLQNVNGNTYLYWFQQKPGQSPQLLIYRMSNLNSGVPDRFSGSGSGTEFTLTISSLEPEDFAVYYCMQHLEYPITFGAGTKLEIKRTVAAPSVFIFPPSDEQLKSGTASVVCLLNNFYPREAKVQWKVDNALQSGNSQESVTEQDSKDSTYSLSSTLTLSKADYEKHKVYACEVTHQGLSSPVTKSFNRGEC
# notes: as for B2
# B10: G236M (antibody, human IgG1, kappa)
# heavy: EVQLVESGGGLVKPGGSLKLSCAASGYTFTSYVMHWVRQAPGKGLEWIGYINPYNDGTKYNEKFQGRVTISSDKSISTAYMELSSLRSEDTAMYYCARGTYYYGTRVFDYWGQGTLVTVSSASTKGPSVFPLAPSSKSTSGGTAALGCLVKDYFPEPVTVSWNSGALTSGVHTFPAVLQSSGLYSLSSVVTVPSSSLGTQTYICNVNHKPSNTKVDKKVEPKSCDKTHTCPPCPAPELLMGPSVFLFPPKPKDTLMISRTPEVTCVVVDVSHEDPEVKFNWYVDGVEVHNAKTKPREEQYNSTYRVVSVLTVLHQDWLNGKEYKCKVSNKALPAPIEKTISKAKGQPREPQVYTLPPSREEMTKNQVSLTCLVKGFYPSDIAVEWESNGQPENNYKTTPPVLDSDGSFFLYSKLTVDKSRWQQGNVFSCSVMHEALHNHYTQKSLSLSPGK
# light: DIVMTQSPATLSLSPGERATLSCRSSKSLQNVNGNTYLYWFQQKPGQSPQLLIYRMSNLNSGVPDRFSGSGSGTEFTLTISSLEPEDFAVYYCMQHLEYPITFGAGTKLEIKRTVAAPSVFIFPPSDEQLKSGTASVVCLLNNFYPREAKVQWKVDNALQSGNSQESVTEQDSKDSTYSLSSTLTLSKADYEKHKVYACEVTHQGLSSPVTKSFNRGEC
# notes: as for B2
# B11: G236Q (antibody, human IgG1, kappa)
# heavy: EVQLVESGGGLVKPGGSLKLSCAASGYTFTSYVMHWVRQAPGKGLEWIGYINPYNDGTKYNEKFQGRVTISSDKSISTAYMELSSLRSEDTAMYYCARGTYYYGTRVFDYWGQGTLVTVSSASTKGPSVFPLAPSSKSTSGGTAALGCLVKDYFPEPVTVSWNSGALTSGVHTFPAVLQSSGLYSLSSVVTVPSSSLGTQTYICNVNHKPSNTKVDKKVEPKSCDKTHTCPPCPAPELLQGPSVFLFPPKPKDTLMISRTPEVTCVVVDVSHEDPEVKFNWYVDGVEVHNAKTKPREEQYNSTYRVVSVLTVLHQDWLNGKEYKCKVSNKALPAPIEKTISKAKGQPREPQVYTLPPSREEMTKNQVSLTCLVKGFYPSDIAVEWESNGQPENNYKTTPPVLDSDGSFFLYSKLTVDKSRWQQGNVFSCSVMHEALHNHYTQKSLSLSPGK
# light: DIVMTQSPATLSLSPGERATLSCRSSKSLQNVNGNTYLYWFQQKPGQSPQLLIYRMSNLNSGVPDRFSGSGSGTEFTLTISSLEPEDFAVYYCMQHLEYPITFGAGTKLEIKRTVAAPSVFIFPPSDEQLKSGTASVVCLLNNFYPREAKVQWKVDNALQSGNSQESVTEQDSKDSTYSLSSTLTLSKADYEKHKVYACEVTHQGLSSPVTKSFNRGEC
# notes: as for B2
# B12: S267E/H268D (antibody, human IgG1, kappa)
# heavy: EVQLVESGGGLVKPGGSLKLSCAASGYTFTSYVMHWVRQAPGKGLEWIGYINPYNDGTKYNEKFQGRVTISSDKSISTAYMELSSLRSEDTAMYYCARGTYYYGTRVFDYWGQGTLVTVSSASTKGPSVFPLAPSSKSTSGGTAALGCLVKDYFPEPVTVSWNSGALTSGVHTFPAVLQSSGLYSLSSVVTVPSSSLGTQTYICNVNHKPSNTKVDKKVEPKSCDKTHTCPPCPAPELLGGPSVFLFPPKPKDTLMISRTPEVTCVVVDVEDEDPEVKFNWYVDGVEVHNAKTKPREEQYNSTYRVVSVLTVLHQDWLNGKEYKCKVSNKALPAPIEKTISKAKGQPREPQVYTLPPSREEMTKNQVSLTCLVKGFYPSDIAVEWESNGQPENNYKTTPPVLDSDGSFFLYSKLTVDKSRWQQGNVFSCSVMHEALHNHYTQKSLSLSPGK
# light: DIVMTQSPATLSLSPGERATLSCRSSKSLQNVNGNTYLYWFQQKPGQSPQLLIYRMSNLNSGVPDRFSGSGSGTEFTLTISSLEPEDFAVYYCMQHLEYPITFGAGTKLEIKRTVAAPSVFIFPPSDEQLKSGTASVVCLLNNFYPREAKVQWKVDNALQSGNSQESVTEQDSKDSTYSLSSTLTLSKADYEKHKVYACEVTHQGLSSPVTKSFNRGEC
# notes: as for B1
# B13: L234E/H268D (antibody, human IgG1, kappa)
# heavy: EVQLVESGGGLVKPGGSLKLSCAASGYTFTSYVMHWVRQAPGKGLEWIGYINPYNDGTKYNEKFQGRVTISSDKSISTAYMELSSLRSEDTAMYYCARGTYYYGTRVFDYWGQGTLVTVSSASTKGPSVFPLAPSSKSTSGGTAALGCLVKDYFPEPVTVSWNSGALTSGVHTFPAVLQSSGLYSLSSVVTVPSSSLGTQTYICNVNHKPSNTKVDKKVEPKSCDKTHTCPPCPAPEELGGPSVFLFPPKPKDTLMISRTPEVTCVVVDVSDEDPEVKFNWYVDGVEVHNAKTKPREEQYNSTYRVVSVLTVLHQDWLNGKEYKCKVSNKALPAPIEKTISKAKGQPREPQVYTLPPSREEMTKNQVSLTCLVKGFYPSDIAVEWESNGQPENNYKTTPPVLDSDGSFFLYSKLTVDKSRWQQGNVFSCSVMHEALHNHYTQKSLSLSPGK
# light: DIVMTQSPATLSLSPGERATLSCRSSKSLQNVNGNTYLYWFQQKPGQSPQLLIYRMSNLNSGVPDRFSGSGSGTEFTLTISSLEPEDFAVYYCMQHLEYPITFGAGTKLEIKRTVAAPSVFIFPPSDEQLKSGTASVVCLLNNFYPREAKVQWKVDNALQSGNSQESVTEQDSKDSTYSLSSTLTLSKADYEKHKVYACEVTHQGLSSPVTKSFNRGEC
# notes: as for B1
# B14: G236Y (antibody, human IgG1, kappa)
# heavy: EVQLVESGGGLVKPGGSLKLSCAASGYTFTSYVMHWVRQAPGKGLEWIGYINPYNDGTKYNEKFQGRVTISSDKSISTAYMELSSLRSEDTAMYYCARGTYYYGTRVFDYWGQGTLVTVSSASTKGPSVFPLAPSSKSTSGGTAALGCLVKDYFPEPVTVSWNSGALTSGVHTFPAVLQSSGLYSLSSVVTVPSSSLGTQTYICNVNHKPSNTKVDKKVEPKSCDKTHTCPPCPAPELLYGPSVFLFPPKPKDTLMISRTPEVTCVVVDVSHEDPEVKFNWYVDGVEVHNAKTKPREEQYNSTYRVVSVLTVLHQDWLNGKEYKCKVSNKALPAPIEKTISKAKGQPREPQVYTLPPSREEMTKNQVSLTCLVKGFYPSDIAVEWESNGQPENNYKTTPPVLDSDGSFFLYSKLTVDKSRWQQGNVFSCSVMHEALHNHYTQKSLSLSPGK
# light: DIVMTQSPATLSLSPGERATLSCRSSKSLQNVNGNTYLYWFQQKPGQSPQLLIYRMSNLNSGVPDRFSGSGSGTEFTLTISSLEPEDFAVYYCMQHLEYPITFGAGTKLEIKRTVAAPSVFIFPPSDEQLKSGTASVVCLLNNFYPREAKVQWKVDNALQSGNSQESVTEQDSKDSTYSLSSTLTLSKADYEKHKVYACEVTHQGLSSPVTKSFNRGEC
# notes: as for B2
# B15: L235S/S267E (antibody, human IgG1, kappa)
# heavy: not shown
# light: DIVMTQSPATLSLSPGERATLSCRSSKSLQNVNGNTYLYWFQQKPGQSPQLLIYRMSNLNSGVPDRFSGSGSGTEFTLTISSLEPEDFAVYYCMQHLEYPITFGAGTKLEIKRTVAAPSVFIFPPSDEQLKSGTASVVCLLNNFYPREAKVQWKVDNALQSGNSQESVTEQDSKDSTYSLSSTLTLSKADYEKHKVYACEVTHQGLSSPVTKSFNRGEC
# notes: as for B1
# B16: S267D/A327D (antibody, human IgG1, kappa)
# heavy: not shown
# light: DIVMTQSPATLSLSPGERATLSCRSSKSLQNVNGNTYLYWFQQKPGQSPQLLIYRMSNLNSGVPDRFSGSGSGTEFTLTISSLEPEDFAVYYCMQHLEYPITFGAGTKLEIKRTVAAPSVFIFPPSDEQLKSGTASVVCLLNNFYPREAKVQWKVDNALQSGNSQESVTEQDSKDSTYSLSSTLTLSKADYEKHKVYACEVTHQGLSSPVTKSFNRGEC
# notes: as for B1
# B17: G236H (antibody, human IgG1, kappa)
# heavy: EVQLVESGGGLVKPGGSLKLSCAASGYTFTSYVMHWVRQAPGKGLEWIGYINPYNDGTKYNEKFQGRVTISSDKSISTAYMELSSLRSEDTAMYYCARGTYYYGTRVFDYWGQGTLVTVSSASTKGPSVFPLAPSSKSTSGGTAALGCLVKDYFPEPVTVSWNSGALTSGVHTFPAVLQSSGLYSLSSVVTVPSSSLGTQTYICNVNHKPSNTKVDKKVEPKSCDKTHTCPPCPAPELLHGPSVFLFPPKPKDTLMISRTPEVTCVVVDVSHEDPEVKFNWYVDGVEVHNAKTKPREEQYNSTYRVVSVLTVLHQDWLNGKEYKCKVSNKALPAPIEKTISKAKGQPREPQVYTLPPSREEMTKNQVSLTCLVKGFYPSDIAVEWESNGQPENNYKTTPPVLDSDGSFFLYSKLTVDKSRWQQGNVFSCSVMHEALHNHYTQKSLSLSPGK
# light: DIVMTQSPATLSLSPGERATLSCRSSKSLQNVNGNTYLYWFQQKPGQSPQLLIYRMSNLNSGVPDRFSGSGSGTEFTLTISSLEPEDFAVYYCMQHLEYPITFGAGTKLEIKRTVAAPSVFIFPPSDEQLKSGTASVVCLLNNFYPREAKVQWKVDNALQSGNSQESVTEQDSKDSTYSLSSTLTLSKADYEKHKVYACEVTHQGLSSPVTKSFNRGEC
# notes: as for B2
# How the values were obtained:
# [1] = biological target: T1, human FcγRIIb receptor protein (R&D …); assay: SPR
# Description: (§1) Variants were screened for receptor affinity using Biacore™ technology, also referred to as Biacore herein, a surface plasmon resonance (SPR) based technology for studying biomolecular interactions in real time. SPR measurements were performed using a Biacore 3000 instrument (Biacore, Piscataway, N.J.). A protein A/G (Pierce Biotechnology) CM5 biosensor chip (Biacore) was generated using a standard primary amine coupling protocol. All measurements were performed using HBS-EP buffer (10 mM HEPES pH 7.4, 0.15 M NaCl, 3 mM EDTA, 0.005% vol/vol surfactant P20, Biacore). Antibodies at 20 nM or 50 nM in HBS-EP buffer were immobilized on the protein A/G surface and FcγRs were injected. After each cycle, the surface was regenerated by injecting glycine buffer (10 mM, pH 1.5). Data were processed by zeroing time and response before the injection of FcγR and by subtracting appropriate nonspecific signals (response of reference channel and injection of running buffer). Kinetic analyses were performed by global fitting of binding data with a 1:1 Langmuir binding model using BIAevaluation software (Biacore).
# [2] = biological target: T2, human FcγRIIa (131R), His- and …; assay: SPR
# Description: as §1
Binder,Fold vs WT IgG1 [1],Kd [1],binding result [1],binding result [2],Fold vs WT IgG1 [2],Kd [2]
B1,11.6 fold,0.126 µM,–,–,–,–
B2,–,–,no binding,no binding,–,–
B3,–,–,no binding,no binding,–,–
B4,12.1 fold,0.121 µM,–,–,–,–
B5,17.8 fold,0.0826 µM,–,–,–,–
B6,–,–,no binding,no binding,–,–
B7,15.9 fold,0.0922 µM,–,–,–,–
B8,0.147 fold,10 µM,–,–,0.0859 fold,10 µM
B9,0.0147 fold,100 µM,–,–,0.00859 fold,100 µM
B10,0.147 fold,10 µM,–,–,0.0859 fold,10 µM
B11,0.147 fold,10 µM,–,–,0.0859 fold,10 µM
B12,33.3 fold,0.044 µM,–,–,–,–
B13,5.89 fold,0.249 µM,–,–,–,–
B14,–,–,no binding,no binding,–,–
B15,–,37.8 µM,–,–,–,–
B16,6.89 fold,0.213 µM,–,–,–,–
B17,–,–,no binding,–,0.135 fold,6.35 µM
